These results are taken from publication PMC1665450, “Molecular modeling and characterization of Vibrio cholerae transcription regulator HlyU” (BMC Structural Biology, 2006).

This series deals with the molecule itself. Briefly: not stated; unpublished results (Saha & Chakrabarti); HlyU after cleavage of the N-terminal His6-tag.

In general, stoichiometry N refers to a count of units in the complex or per binding partner.

B1: Vibrio cholerae transcription regulator HlyU (natural protein)
chain: MPYLKGAPMNLQEMEKNSAKAVVLLKAMANERRLQILCMLLDNELSVGELSSRLELSQSALSQHLAWLRRDGLVNTRKEAQTVFYTLSSTEVKAMIELLHRLYCQANQ
notes: also called Vc-HlyU; not shown: His6, N-terminal, cleaved
For B1, the “stoichiometry N” value worked out at 2.
